In US20040043420A1, “Method of identifying conformation-sensitive binding peptides and uses thereof” (priority 2003, published 2004):
Residue numbers refer to the chain shown, from its start. Blank lines part the entries; values can stand above or below the binder they belong to. No end group written: not given here.

Key:
[1] = molecular target: T1, ER α (UniProt P03372 1-595, limits assumed); assay: phage isolated on ERα-ERE; Buffer
T1 construct: also called estrogen receptor α; ERα-ERE
T1 sequence (looked up): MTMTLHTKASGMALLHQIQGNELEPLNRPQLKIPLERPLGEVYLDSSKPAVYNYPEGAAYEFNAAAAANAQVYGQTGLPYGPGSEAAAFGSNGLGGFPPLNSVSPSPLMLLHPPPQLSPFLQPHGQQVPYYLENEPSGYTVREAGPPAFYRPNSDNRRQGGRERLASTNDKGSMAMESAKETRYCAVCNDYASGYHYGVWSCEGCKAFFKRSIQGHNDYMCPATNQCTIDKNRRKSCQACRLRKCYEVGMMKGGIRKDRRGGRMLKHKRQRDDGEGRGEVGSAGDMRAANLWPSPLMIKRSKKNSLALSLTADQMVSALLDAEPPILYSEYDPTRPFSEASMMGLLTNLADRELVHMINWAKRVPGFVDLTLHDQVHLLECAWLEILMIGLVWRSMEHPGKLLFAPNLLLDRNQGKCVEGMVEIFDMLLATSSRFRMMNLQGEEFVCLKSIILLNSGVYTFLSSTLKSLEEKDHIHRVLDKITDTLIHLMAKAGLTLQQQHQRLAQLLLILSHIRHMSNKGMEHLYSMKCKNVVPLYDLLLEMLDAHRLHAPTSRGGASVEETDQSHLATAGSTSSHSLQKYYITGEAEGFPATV

[2] = molecular target: T2, Gal4 transcriptional activation domain (AD) fused in frame with AR (yeast, UniProt P10275 1-920, limits assumed); assay: cell-based or functional assay
T2 sequence (looked up): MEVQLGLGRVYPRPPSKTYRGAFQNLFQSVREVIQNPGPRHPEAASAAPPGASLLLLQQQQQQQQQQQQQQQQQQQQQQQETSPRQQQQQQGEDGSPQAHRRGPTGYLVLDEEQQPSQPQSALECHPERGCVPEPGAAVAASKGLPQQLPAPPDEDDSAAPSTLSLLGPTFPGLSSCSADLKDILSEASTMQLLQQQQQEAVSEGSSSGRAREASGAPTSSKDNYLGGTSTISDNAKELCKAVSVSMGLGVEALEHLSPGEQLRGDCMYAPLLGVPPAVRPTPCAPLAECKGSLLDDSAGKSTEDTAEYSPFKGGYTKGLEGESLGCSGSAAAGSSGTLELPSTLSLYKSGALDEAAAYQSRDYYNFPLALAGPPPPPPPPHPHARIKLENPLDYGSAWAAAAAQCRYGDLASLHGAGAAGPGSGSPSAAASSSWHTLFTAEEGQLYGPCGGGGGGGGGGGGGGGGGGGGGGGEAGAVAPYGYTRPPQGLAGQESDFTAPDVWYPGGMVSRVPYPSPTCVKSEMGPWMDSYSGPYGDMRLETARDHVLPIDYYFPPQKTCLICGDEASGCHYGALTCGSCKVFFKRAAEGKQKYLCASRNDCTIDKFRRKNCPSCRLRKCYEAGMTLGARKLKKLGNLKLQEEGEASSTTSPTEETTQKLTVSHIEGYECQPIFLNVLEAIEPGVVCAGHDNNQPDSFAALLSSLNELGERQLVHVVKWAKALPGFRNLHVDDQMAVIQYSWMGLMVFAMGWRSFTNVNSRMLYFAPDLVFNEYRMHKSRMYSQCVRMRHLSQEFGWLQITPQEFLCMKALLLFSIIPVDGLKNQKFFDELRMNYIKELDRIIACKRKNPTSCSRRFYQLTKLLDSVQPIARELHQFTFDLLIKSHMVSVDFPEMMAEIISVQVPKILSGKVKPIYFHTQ

[3] = molecular target: T2, Gal4 transcriptional activation domain …; assay: cell-based or functional assay; remark: listed apart in the source
[4] = molecular target: T1, ER α; assay: phage isolated on ERα on plastic; ICI 182,780
[5] = molecular target: T3, estrogen receptor (ER) α as a carboxy-terminal fusion to the Gal4-activation domain (yeast, UniProt P03372 1-595, limits assumed); assay: cell-based or functional assay; further: test concentration or dose not given here
T3 sequence (looked up): T1 sequence (looked up)

binding result [1]: binds
Binder: SSDWCFGWGGWCASEAVSR (not fully specified; cysteine pairing not given here) [10B]

binding result [1]: binds
Binder: SSRPTAEWFRENLSR [5B]

β-galactosidase activity (yeast two-hybrid), CPA [2]: 1.53
β-galactosidase activity (yeast two-hybrid), DHT [2]: 1.43
β-galactosidase activity (yeast two-hybrid), MPA [2]: 1.44
β-galactosidase activity (yeast two-hybrid), No Lig [2]: 1.12
β-galactosidase activity (yeast two-hybrid), RU [2]: 1.5
β-galactosidase activity (yeast two-hybrid), Test [2]: 0.969
Fold induction (yeast two-hybrid) [3]: 1 fold
B1: B18C4 (peptide)
chain: MKLLSSIEQACDICRLKKLKCSKEKPKCAKCLKNNWECRYSPKTKRSPLTRAHLTEVESRLERLEQLFLLIFPREDLDMILKMDSLQDIKALLTGLFVQDNVNKDAVTDRLASVETDMPLTLRQHRISATSSSEESSNKGQRQLTVSEFDSPWVWFGGEPGLNLLDLQPS

β-galactosidase activity (yeast two-hybrid), CPA [2]: 1.23
β-galactosidase activity (yeast two-hybrid), DHT [2]: 7.85
β-galactosidase activity (yeast two-hybrid), MPA [2]: 4.56
β-galactosidase activity (yeast two-hybrid), No Lig [2]: 0.794
β-galactosidase activity (yeast two-hybrid), RU [2]: 1.2
β-galactosidase activity (yeast two-hybrid), Test [2]: 7.77
Fold induction (yeast two-hybrid) [3]: 10 fold
B2: B22F6 (peptide)
chain: MKLLSSIEQACDICRLKKLKCSKEKPKCAKCLKNNWECRYSPKTKRSPLTRAHLTEVESRLERLEQLFLLIFPREDLDMILKMDSLQDIKALLTGLFVQDNVNKDAVTDRLASVETDMPLTLRQHRISATSSSEESSNKGQRQLTVSEFLSGLEMEVVLWHYGRLDLQPS

binding result [4]: binds
Binder: SSYWDGSWRRKETCVSCSR [2PI]

β-galactosidase activity (yeast two-hybrid), CPA [2]: 0.395
β-galactosidase activity (yeast two-hybrid), DHT [2]: 0.616
β-galactosidase activity (yeast two-hybrid), No Lig [2]: 0.875
β-galactosidase activity (yeast two-hybrid), RU [2]: 0.4
Fold induction (yeast two-hybrid) [3]: 1 fold
B3: B8A10 (peptide)
chain: MKLLSSIEQACDICRLKKLKCSKEKPKCAKCLKNNWECRYSPKTKRSPLTRAHLTEVESRLERLEQLFLLIFPREDLDMILKMDSLQDIKALLTGLFVQDNVNKDAVTDRLASVETDMPLTLRQHRISATSSSEESSNKGQRQLTVSEFVNWDAVVPWSELVALLDLQPS

binding result [1]: binds
Binder: SSRPDAAFFGAKLSR [3B]

binding result [4]: binds
Binder: SSTATALRDRLAYSR [6PI]

binding result [1]: binds
Binder: SRWWDTSWWLEELSR [6B]

Fold Induction (ligand-induced β-galactosidase, two-hybrid) [5]: 3.5 fold
B4: B3E2 (peptide)
chain: MKLLSSIEQACDICRLKKLKCSKEKPKCAKCLKNNWECRYSPKTKRSPLTRAHLTEVESRLERLEQLFLLIFPREDLDMILKMDSLQDIKALLTGLFVQDNVNKDAVTDRLASVETDMPLTLRQHRISATSSSEESSNKGQRQLTVSEFGGSVLLRELLCCYDALEPTTTR

binding result [4]: binds
Binder: SSDCESLTSYPHLKALCSR [5PI]

Fold Induction (ligand-induced β-galactosidase, two-hybrid) [5]: 11 fold
B5: B1A1 (peptide)
chain: MKLLSSIEQACDICRLKKLKCSKEKPKCAKCLKNNWECRYSPKTKRSPLTRAHLTEVESRLERLEQLFLLIFPREDLDMILKMDSLQDIKALLTGLFVQDNVNKDAVTDRLASVETDMPLTLRQHRISATSSSEESSNKGQRQLTVSEFCPVGLLVHLLMQ

Fold Induction (ligand-induced β-galactosidase, two-hybrid) [5]: 6 fold
B6: B1G8 (peptide)
chain: B5 chain with C150T, P151S, G153S, L154R, H157T, M160L

binding result [4]: binds
Binder: SSGKTREHYREGTSR [7PI]

binding result [1]: binds
Binder: SSRPSPSFWEKQLSR [4B]

Fold Induction (ligand-induced β-galactosidase, two-hybrid) [5]: 3 fold
B7: B5A2 (peptide)
chain: MKLLSSIEQACDICRLKKLKCSKEKPKCAKCLKNNWECRYSPKTKRSPLTRAHLTEVESRLERLEQLFLLIFPREDLDMILKMDSLQDIKALLTGLFVQDNVNKDAVTDRLASVETDMPLTLRQHRISATSSSEESSNKGQRQLTVSEFGCSAILRYLLRSPRDLDLQPS

Fold Induction (ligand-induced β-galactosidase, two-hybrid) [5]: 2.5 fold
B8: B6C4 (peptide)
chain: B7 chain with G150D, C151R, A153S, R156V, Y157S, R160S, S161M, P162V, R163E, D164T

Fold Induction (ligand-induced β-galactosidase, two-hybrid) [5]: 3.5 fold
B9: B6A1 (peptide)
chain: MKLLSSIEQACDICRLKKLKCSKEKPKCAKCLKNNWECRYSPKTKRSPLTRAHLTEVESRLERLEQLFLLIFPREDLDMILKMDSLQDIKALLTGLFVQDNVNKDAVTDRLASVETDMPLTLRQHRISATSSSEESSNKGQRQLTVSEFTGSRLLLKLLRFPDSSTCSQA

binding result [1]: binds
Binder: SSRIADLFWRLEPSR [1B]

binding result [1]: binds
Binder: SRNWDWAALELLPYPHPSR [9B]

Fold Induction (ligand-induced β-galactosidase, two-hybrid) [5]: 4.5 fold
B10: B5H10 (peptide)
chain: MKLLSSIEQACDICRLKKLKCSKEKPKCAKCLKNNWECRYSPKTKRSPLTRAHLTEVESRLERLEQLFLLIFPREDLDMILKMDSLQDIKALLTGLFVQDNVNKDAVTDRLASVETDMPLTLRQHRISATSSSEESSNKGQRQLTVSEFSPPSSLLALLLGGKSLEPLPIRYKNVKRQFTSNSRGSVDLQPS

binding result [1]: binds
Binder: SRSYHGEWGVWTLSR [7B]

binding result [4]: binds
Binder: SSRALALFPVGMESR [4PI]

β-galactosidase activity (yeast two-hybrid), CPA [2]: 8.59
β-galactosidase activity (yeast two-hybrid), DHT [2]: 24.1
β-galactosidase activity (yeast two-hybrid), MPA [2]: 19.2
β-galactosidase activity (yeast two-hybrid), No Lig [2]: 2.53
β-galactosidase activity (yeast two-hybrid), RU [2]: 6.8
β-galactosidase activity (yeast two-hybrid), Test [2]: 26.6
Fold induction (yeast two-hybrid) [3]: 10 fold
B11: M2H3 (peptide)
chain: MKLLSSIEQACDICRLKKLKCSKEKPKCAKCLKNNWECRYSPKTKRSPLTRAHLTEVESRLERLEQLFLLIFPREDLDMILKMDSLQDIKALLTGLFVQDNVNKDAVTDRLASVETDMPLTLRQHRISATSSSEESSNKGQRQLTVSEFRQSFVSEILGGGWLPLDLQPS

binding result [4]: binds
Binder: SSSTPGWWEWDWASR [1PI]

binding result [4]: binds
Binder: SSRTAEDYCFFADDYWCSR (also called 16E) [3PI]
